The results in this text go back to article PMC7899689.

Test [1] concerns the target human recombinant HER2 protein (extracellular domain Thr23-Thr652 of human ERBB2 with His tag) (human) (UniProt P04626). The experiment in a line: SEC-MALS. In general terms: Size exclusion chromatography separates by hydrodynamic size, large species first.
For test [2] the target is unchanged. The test is described as follows: SEC.

“trastuzumab stressed at 45°C for 10 days (45C10d) (antibody)”: the percent of antibody unbound (mixed 1:1) in test [1] and in test [2] was 40% each time.
